Two molecules from PMC10528418 (Molecular cell, 2023) can be followed below.

Common to all, as to assay: cryo-EM structure
Assay [1] has as its target T1, TFIIIC subunit τ91 (S. cerevisiae, UniProt Q06339 1-672).
T1 sequence (looked up): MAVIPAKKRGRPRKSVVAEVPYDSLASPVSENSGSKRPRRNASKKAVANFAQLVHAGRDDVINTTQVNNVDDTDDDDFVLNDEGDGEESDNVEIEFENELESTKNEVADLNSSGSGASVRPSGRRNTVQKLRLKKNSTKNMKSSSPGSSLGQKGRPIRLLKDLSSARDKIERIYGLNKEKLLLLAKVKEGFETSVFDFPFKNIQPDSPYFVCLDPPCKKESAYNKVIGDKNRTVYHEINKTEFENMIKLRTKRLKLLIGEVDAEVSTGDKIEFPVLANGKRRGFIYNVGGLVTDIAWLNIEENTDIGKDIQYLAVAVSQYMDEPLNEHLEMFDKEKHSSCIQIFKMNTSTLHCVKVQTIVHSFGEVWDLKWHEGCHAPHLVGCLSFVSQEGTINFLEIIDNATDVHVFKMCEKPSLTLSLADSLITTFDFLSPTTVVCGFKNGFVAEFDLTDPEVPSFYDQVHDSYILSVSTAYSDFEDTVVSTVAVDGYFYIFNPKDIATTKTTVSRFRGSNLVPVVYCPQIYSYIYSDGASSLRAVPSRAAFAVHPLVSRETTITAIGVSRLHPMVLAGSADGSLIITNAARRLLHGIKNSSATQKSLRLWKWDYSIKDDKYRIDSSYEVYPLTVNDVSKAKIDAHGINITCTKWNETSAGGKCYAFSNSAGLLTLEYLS

Assay [2] has as its target T2, TFIIIC subunit τ138 (S. cerevisiae, UniProt P34111 1-1160).
T2 sequence (looked up): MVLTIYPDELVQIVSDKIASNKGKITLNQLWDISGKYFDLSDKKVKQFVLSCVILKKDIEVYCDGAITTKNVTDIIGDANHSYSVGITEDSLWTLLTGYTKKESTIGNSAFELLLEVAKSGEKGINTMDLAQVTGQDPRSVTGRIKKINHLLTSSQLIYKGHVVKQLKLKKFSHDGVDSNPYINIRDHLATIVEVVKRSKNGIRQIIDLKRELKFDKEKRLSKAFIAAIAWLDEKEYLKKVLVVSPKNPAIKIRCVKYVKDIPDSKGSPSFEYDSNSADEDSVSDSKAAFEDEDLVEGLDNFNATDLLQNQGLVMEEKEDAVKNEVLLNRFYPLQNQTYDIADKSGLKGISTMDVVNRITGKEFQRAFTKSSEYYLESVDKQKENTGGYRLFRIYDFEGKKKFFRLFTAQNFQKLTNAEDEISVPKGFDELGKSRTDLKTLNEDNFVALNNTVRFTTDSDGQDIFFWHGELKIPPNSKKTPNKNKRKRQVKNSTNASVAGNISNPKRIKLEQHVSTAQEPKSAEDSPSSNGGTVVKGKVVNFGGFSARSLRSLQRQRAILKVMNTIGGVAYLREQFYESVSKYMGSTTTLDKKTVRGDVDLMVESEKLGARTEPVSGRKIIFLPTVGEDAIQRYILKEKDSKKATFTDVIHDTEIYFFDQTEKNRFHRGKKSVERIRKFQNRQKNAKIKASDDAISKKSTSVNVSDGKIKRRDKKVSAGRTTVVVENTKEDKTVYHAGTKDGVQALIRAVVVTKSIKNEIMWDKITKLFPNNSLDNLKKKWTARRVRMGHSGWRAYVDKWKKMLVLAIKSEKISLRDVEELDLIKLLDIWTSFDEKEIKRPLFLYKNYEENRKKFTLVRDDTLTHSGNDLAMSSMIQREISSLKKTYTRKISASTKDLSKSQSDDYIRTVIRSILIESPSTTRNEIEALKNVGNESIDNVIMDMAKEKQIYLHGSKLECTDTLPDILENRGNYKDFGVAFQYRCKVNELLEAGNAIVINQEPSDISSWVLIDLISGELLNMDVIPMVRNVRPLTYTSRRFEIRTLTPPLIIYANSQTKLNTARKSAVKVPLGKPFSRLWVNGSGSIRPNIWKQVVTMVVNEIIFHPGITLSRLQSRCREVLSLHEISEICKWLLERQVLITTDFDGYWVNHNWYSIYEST

Assay [3] addresses T3, TFIIIC subunit τ95 (S. cerevisiae, UniProt P32367 1-649).
T3 sequence (looked up): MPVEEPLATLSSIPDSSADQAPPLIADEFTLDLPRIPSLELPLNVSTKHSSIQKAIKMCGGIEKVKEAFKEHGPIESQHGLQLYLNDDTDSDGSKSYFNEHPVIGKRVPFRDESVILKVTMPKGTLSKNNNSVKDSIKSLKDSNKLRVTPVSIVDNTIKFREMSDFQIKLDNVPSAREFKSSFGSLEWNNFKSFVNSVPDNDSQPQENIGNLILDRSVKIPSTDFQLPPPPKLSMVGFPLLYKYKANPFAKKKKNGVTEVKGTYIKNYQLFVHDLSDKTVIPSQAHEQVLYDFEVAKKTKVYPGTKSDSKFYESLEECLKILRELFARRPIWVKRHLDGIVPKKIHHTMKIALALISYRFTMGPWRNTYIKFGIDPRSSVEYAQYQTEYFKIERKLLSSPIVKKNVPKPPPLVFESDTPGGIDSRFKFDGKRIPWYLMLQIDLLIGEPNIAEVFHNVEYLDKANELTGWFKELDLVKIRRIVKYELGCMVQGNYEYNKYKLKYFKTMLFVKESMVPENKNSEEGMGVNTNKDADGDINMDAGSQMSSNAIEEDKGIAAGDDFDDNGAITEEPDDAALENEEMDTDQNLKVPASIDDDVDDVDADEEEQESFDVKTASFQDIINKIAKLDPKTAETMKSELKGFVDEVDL

B1: TFIIIC subunit τ60 (natural protein, S. cerevisiae)
chain: MKLLKDLLVDRKEFEDWKNNLTWARDGTLYLTTFPDISIGQPKYAKDINCNSKNLFHVKEFPLEFENKLDFELAQQNGLLNSQPVCYPRVCKPSPIDDWMAVLSNNGNVSVFKDNKMLTNLDSKGNLSSRTYHCFEWNPIESSIVVGNEDGELQFFSIRKNSENTPEFYFESSIRLSDAGSKDWVTHIVWYEDVLVAALSNNSVFSMTVSASSHQPVSRMIQNASRRKITDLKIVDYKVVLTCPGYVHKIDLKNYSISSLKTGSLENFHIIPLNHEKESTILLMSNKTSYKVLLEDELHVTADNIIAPYLEKKFKKWSTIWNEFNNYETTLVIHGISLSPDGYSIAIVYDMERVAFKYKIASEQSFNIMFAPLYHTWTISERAVGLAWYQTYQIYNQSLPKLPENFSMNKKLLNGNYPISLDFQSYLNALMKSEEMRIIMFLNMTIDKPSILSFLEALYEYAINKKSELTNSFDLACVLSIAAILKREAPIYNGTLLMKNSFLEETFNLESFTADPETVTSTTNNTWKRCGVTLLPILTTHVKICPVSKQRVIDIKRDDLNDYGWFTRGLLERFNEISVYCGTTLEVM
Consider B1, for which the binding result in assay [1] and in assay [2] was “binds” each time.

B2: TFIIIC subunit τ55 (natural protein, S. cerevisiae, UniProt Q12415 1-435, looked up)
chain: MVVNTIYIARHGYRSNWLPEGPYPDPLTGIDSDVPLAEHGVQQAKELAHYLLSLDNQPEAAFASPFYRCLETVQPIAKLLEIPVYLERGIGEWYRPDRKPVIPVPAGYEILSKFFPGVISQEWDSTLTPNEKGETEQEMYMRFKKFWPLFIERVEKEYPNVECILLVTHAASKIALGMSLLGYDNPRMSLNENGDKIRSGSCSLDKYEILKKSYDTIDETDDQTSFTYIPFSDRKWVLTMNGNTEFLSSGEEMNWNFDCVAEAGSDADIKKRQMTKKTSSPIPEADDQTEVETVYISVDIPSGNYKERTEIAKSAILQYSGLETDAPLFRIGNRLYEGSWERLVGTELAFPNAAHVHKKTAGLLSPTEENETTNAGQSKGSSTANDPNIQIQEEDVGLPDSTNTSRDHTGDKEEVQSEKIYRIKERIVLSNVRPM
As for B2, the binding result in assay [2] and in assay [3] was “binds” in each case.
